Changes are numbered by the printed parent chain. *1 amine or outer side, *2 acyl side, *3 side chain or, on linkers, in order; H or OH if unused. Where no end group is shown, it is not given here. Side-chain parts run from the residue outwards. [ ]: non-standard residue; d: D form. The star is where a group is joined. αMePhe(2-F) = C[C@](N)(Cc1ccccc1F)C(=O)O; γGlu = O=C(O)[C@H](CCC(=O)[*:2])N[*:1]; C14 diacid = O=C(O)CCCCCCCCCCCCC(=O)*; αMeY = C[C@](N)(Cc1ccc(O)cc1)C(=O)O; αMeF = C[C@](N)(Cc1ccccc1)C(=O)O; αMeL = CC(C)C[C@](C)(N)C(=O)O; Orn = NCCC[C@H](N)C(=O)O; AEEA = NCCOCCOCC(=O)O; Aib = CC(C)(N)C(=O)O
T1: human GIP receptor (human, UniProt P48546 22-466)
T1 sequence (looked up): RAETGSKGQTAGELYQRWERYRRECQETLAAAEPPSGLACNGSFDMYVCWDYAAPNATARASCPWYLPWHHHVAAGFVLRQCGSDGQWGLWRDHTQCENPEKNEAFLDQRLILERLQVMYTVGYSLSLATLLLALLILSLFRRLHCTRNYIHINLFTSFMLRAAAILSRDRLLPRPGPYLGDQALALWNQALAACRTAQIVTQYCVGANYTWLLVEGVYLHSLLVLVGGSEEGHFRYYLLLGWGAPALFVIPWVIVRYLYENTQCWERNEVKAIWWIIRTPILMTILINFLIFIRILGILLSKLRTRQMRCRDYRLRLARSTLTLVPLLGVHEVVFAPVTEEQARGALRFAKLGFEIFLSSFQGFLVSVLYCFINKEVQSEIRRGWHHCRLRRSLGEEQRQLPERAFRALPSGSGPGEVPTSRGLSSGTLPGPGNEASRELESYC

B1: Y-Aib-EGT-αMeF(2F)-TSD-4Pal-SI-αMeL-LD-Orn-IAQ-Aib-EFIK((2-[2-(2-Amino-ethoxy)-ethoxy]-acetyl)2-CO-(CH2)12-CO2H)-αMeY-LIEGGPSSGAPPP … (peptide)
peptide: YXEGTXTSDXSIXLDXIAQXEFIKXLIEGGPSSGAPPPSK
modifications: Aib2, αMeF(2F)6, 4Pal10, αMeL13, Orn16, Aib20, αMeY25; acylated K24, K40 (groups as in name); C-terminal amide
B2: Y-Aib-EGT-αMeF(2F)-TSD-Ac5c-SI-αMeL-LD-Orn-K((2-[2-(2-Amino-ethoxy)-ethoxy]-acetyl)2-(γ-Glu)-CO-(CH2)12-CO2H)AQ-Aib-EFI-(D-Glu)-αMeY-LIEGGK((2-[2-(2-Amino-ethox … (peptide)
peptide: YXEGTXTSDXSIXLDXKAQXEFIXXLIEGGKSSGAPPPS
modifications: Aib2, αMeF(2F)6, Ac5c10, αMeL13, Orn16, Aib20, D-Glu24, αMeY25; acylated K17, K31 (groups as in name); C-terminal amide
B3: Y-Aib-EGT-αMeF(2F)-TSD-4Pal-SI-αMeL-LD-Orn-K((2-[2-(2-Amino-ethoxy)-ethoxy]-acetyl)2-(γ-Glu)-CO-(CH2)12-CO2H)AQ-Aib-E-(3ClPhe)-I-(D-Glu)-αMeY-LIEGGK((2-[2-(2-Am … (peptide)
peptide: B2 peptide with F22X
modifications: Aib2, αMeF(2F)6, 4Pal10, αMeL13, Orn16, Aib20, 3ClPhe22, D-Glu24, αMeY25; acylated K17, K31 (groups as in name); C-terminal amide
B4: Y-Aib-EGT-αMeF(2F)-TSD-4Pal-SI-αMeL-LD-Orn-K((2-[2-(2-Amino-ethoxy)-ethoxy]-acetyl)2-(γ-Glu)-CO-(CH2)i2-CO2H)AQ-Aib-4Pal-FI-(D-Glu)-αMeY-LIEGGK((2-[2-(2-Amino-e … (peptide)
peptide: B2 peptide with E21X
modifications: Aib2, αMeF(2F)6, 4Pal10, αMeL13, Orn16, Aib20, 4Pal21, D-Glu24, αMeY25; acylated K17, K31 (groups as in name); C-terminal amide
B5: Y-Aib-EGT-αMeF(2F)-TSD-4Pal-SI-αMeL-LD-Orn-K((2-[2-(2-Amino-ethoxy)-ethoxy]-acetyl)2-(γ-Glu)-CO-(CH2)12-CO2H)AQ-Aib-E-3FPhe-I-(D-Glu)-αMeY-LIEGGK((2-[2-(2-Amino … (peptide)
peptide: B2 peptide with F22X
modifications: Aib2, αMeF(2F)6, 4Pal10, αMeL13, Orn16, Aib20, 3FPhe22, D-Glu24, αMeY25; acylated K17, K31 (groups as in name); C-terminal amide
B6: Y-Aib-EGT-αMeF(2F)-TSD-4Pal-SI-αMeL-LD-Orn-K((2-[2-(2-Amino-ethoxy)-ethoxy]-acetyl)2-(γ-Glu)-CO-(CH2)12-CO2H)AQ-Aib-Orn-FI-(D-Glu)-αMeY-LIEGGK((2-[2-(2-Amino-et … (peptide)
peptide: B2 peptide with E21X
modifications: Aib2, αMeF(2F)6, 4Pal10, αMeL13, Orn16, Aib20, Orn21, D-Glu24, αMeY25; acylated K17, K31 (groups as in name); C-terminal amide
B7: Y-Aib-EGT-αMeF(2F)-TSD-4Pal-Aib-I-αMeL-LD-Orn-K((2-[2-(2-Amino-ethoxy)-ethoxy]-acetyl)2-(γ-Glu)-CO-(CH2)12-CO2H)AQ-Aib-EFI-(D-Glu)-αMeY-LIEGGK((2-[2-(2-Amino-et … (peptide)
peptide: B2 peptide with S11X
modifications: Aib2, αMeF(2F)6, 4Pal10, Aib11, αMeL13, Orn16, Aib20, D-Glu24, αMeY25; acylated K17, K31 (groups as in name); C-terminal amide
B8: Y-Aib-EGT-αMeF(2F)-TSD-4Pal-SI-αMeL-LD-Orn-K((2-[2-(2-Amino-ethoxy)-ethoxy]-acetyl)2-(γ-Glu)-CO-(CH2)12-CO2H)AQ-Aib-E-1Nal-I-(D-Glu)-αMeY-LIEGGK((2-[2-(2-Amino- … (peptide)
peptide: B2 peptide with F22X
modifications: Aib2, αMeF(2F)6, 4Pal10, αMeL13, Orn16, Aib20, 1Nal22, D-Glu24, αMeY25; acylated K17, K31 (groups as in name); C-terminal amide
B9: Y-Aib-EGT-αMeF(2F)-TSD-hTyr-SI-αMeL-LD-Orn-K((2-[2-(2-Amino-ethoxy)-ethoxy]-acetyl)2-(γ-Glu)-CO-(CH2)12-CO2H)AQ-Aib-EFI-(D-Glu)-αMeY-LIEGGK((2-[2-(2-Amino-ethox … (peptide)
peptide: B2 peptide
modifications: Aib2, αMeF(2F)6, hTyr10, αMeL13, Orn16, Aib20, D-Glu24, αMeY25; acylated K17, K31 (groups as in name); C-terminal amide
B10: Y-Aib-EGT-αMeF(2F)-TSD-ChG-SI-αMeL-LD-Orn-K((2-[2-(2-Amino-ethoxy)-ethoxy]-acetyl)2-(γ-Glu)-CO-(CH2)12-CO2H)AQ-Aib-EFI-(D-Glu)-αMeY-LIEGGK((2-[2-(2-Amino-ethoxy … (peptide)
peptide: B2 peptide
modifications: Aib2, αMeF(2F)6, ChG10, αMeL13, Orn16, Aib20, D-Glu24, αMeY25; acylated K17, K31 (groups as in name); C-terminal amide
B11: Y-Aib-EGT-αMeF(2F)-TSD-4Pal-SI-αMeL-LD-Orn-K((2-[2-(2-Amino-ethoxy)-ethoxy]-acetyl)2-(γ-Glu)-CO-(CH2)12-CO2H)AQ-Aib-E-3,5FPhe-I-(D-Glu)-αMeY-LIEGGK((2-[2-(2-Ami … (peptide)
peptide: B2 peptide with F22X
modifications: Aib2, αMeF(2F)6, 4Pal10, αMeL13, Orn16, Aib20, 3,5FPhe22, D-Glu24, αMeY25; acylated K17, K31 (groups as in name); C-terminal amide
B12: Y-Aib-EGT-αMeF(2F)-TSD-4Pal-SI-αMeL-LD-Orn-K((2-[2-(2-Amino-ethoxy)-ethoxy]-acetyl)2-(γ-Glu)-CO-(CH2)12-CO2H)AQ-Aib-E-2Nal-I-(D-Glu)-αMeY-LIEGGK((2-[2-(2-Amino- … (peptide)
peptide: B2 peptide with F22X
modifications: Aib2, αMeF(2F)6, 4Pal10, αMeL13, Orn16, Aib20, 2Nal22, D-Glu24, αMeY25; acylated K17, K31 (groups as in name); C-terminal amide
B13: Y-Aib-EGT-αMeF(2F)-TSD-OMeY-SI-αMeL-LD-Orn-K((2-[2-(2-Amino-ethoxy)-ethoxy]-acetyl)2-(γ-Glu)-CO-(CH2)12-CO2H)AQ-Aib-EFI-(D-Glu)-αMeY-LIEGGK((2-[2-(2-Amino-ethox … (peptide)
peptide: B2 peptide
modifications: Aib2, αMeF(2F)6, OMeY10, αMeL13, Orn16, Aib20, D-Glu24, αMeY25; acylated K17, K31 (groups as in name); C-terminal amide
B14: Y-Aib-EGT-αMeF(2F)-TSD-4Pal-SI-αMeL-LD-Orn-K((2-[2-(2-Amino-ethoxy)-ethoxy]-acetyl)2-(γ-Glu)-CO-(CH2)12-CO2H)AQ-Aib-EFIG-αMeY-LIEGGK((2-[2-(2-Amino-ethoxy)-etho … (peptide)
peptide: B2 peptide with X24G
modifications: Aib2, αMeF(2F)6, 4Pal10, αMeL13, Orn16, Aib20, αMeY25; acylated K17, K31 (groups as in name); C-terminal amide
B15: Y-Aib-EGT-αMeF(2F)-TSD-4Pal-SI-αMeL-LD-Orn-K((2-[2-(2-Amino-ethoxy)-ethoxy]-acetyl)2-(γ-Glu)-CO-(CH2)12-CO2H)AQ-Aib-E-(2ClPhe)-I-(D-Glu)-αMeY-LIEGGK((2-[2-(2-Am … (peptide)
peptide: B2 peptide with F22X
modifications: Aib2, αMeF(2F)6, 4Pal10, αMeL13, Orn16, Aib20, 2ClPhe22, D-Glu24, αMeY25; acylated K17, K31 (groups as in name); C-terminal amide
B16: Y-Aib-EGT-αMeF(2F)-TSD-Nle-SI-αMeL-LD-Orn-K((2-[2-(2-Amino-ethoxy)-ethoxy]-acetyl)2-(γ-Glu)-CO-(CH2)12-CO2H)AQ-Aib-EFI-(D-Glu)-αMeY-LIEGGK((2-[2-(2-Amino-ethoxy … (peptide)
peptide: B2 peptide
modifications: Aib2, αMeF(2F)6, Nle10, αMeL13, Orn16, Aib20, D-Glu24, αMeY25; acylated K17, K31 (groups as in name); C-terminal amide

Target: human GLP-1 receptor (human, UniProt P43220 24-463)
Experiment: cell-based or functional assay

Binder | cAMP EC50 (1.0% HSA) [nM] | cAMP Emax (1.0% HSA) [%]
B1 | 21.2 | 109
Y[Aib]EGT[αMePhe(2-F)]TSDV[Aib]I[αMeL]LD[Orn]K([AEEA-AEEA-γGlu-C14 diacid])AQ[Aib]E[αMeF]I[dE][αMeY]LIEGGK([AEEA-AEEA-γGlu-C14 diacid])SSGAPPPS-NH2 | 66 | 
B2 | 13.2 | 89.3
B3 | 34 | 85.8
B4 | 36 | 
B5 | 27 | 87.8
B6 | 11 | 
B7 | 27.7 | 108
B8 | 27 | 93
B9 | 16.2 | 
B10 | 227 | 
B11 | 25.5 | 104
B12 | 20 | 81.1
B13 | 21.6 | 
B14 | 12.3 | 95.8
B15 | 36.9 | 89.7
B16 | 28.5 | 

Target: T1, human GIP receptor
Experiment: cell-based or functional assay

Binder | cAMP EC50 (1.0% HSA) [nM] | cAMP Emax (1.0% HSA) [%]
B1 | 1.24 | 80.7
Y[Aib]EGT[αMePhe(2-F)]TSDV[Aib]I[αMeL]LD[Orn]K([AEEA-AEEA-γGlu-C14 diacid])AQ[Aib]E[αMeF]I[dE][αMeY]LIEGGK([AEEA-AEEA-γGlu-C14 diacid])SSGAPPPS-NH2 | 5.58 | 92
B2 | 3.53 | 
B3 | 1.27 | 
B4 | 0.718 | 89.6
B5 | 0.986 | 90.5
B6 | 0.35 | 81.3
B7 | 1.49 | 94.2
B8 | 0.787 | 90.6
B9 | 1.52 | 
B10 | 5.49 | 
B11 | 1.05 | 
B12 | 2.49 | 
B13 | 1.12 | 
B14 | 0.52 | 95.9
B15 | 0.744 | 92.8
B16 | 1.2 | 

Target: human glucagon receptor (human, UniProt P47871 26-477)
Experiment: cell-based or functional assay

Binder | cAMP EC50 (1.0% HSA) [nM]
B1 | > 9950
Y[Aib]EGT[αMePhe(2-F)]TSDV[Aib]I[αMeL]LD[Orn]K([AEEA-AEEA-γGlu-C14 diacid])AQ[Aib]E[αMeF]I[dE][αMeY]LIEGGK([AEEA-AEEA-γGlu-C14 diacid])SSGAPPPS-NH2 | > 9950
B2 | > 9950
B3 | > 9950
B4 | > 9950
B5 | > 9950
B6 | > 9950
B7 | > 9950
B8 | > 9950
B9 | > 9950
B10 | > 9950
B11 | > 9950
B12 | > 9950
B13 | > 9950
B14 | > 9950
B15 | > 9950
B16 | > 9950

— US20230265151A1, “GIP/GLP1 CO-AGONIST COMPOUNDS” (priority 2020, published 2023)
